Laboratory results: publication PMC11524583, “Neurons enhance blood–brain barrier function via upregulating claudin-5 and VE-cadherin expression due to glial cell line-derived neurotrophic factor secretion” (eLife, 2024)
“And” between values parts separate entries of the source, which are not always exact repeats. Identical values can stand only once.

Columns and labels:
FOXO1 = test: Western blot of FOXO1 (p-FOXO1/FOXO1, total, cytoplasmic, nuclear) in hCMEC/D3 cells; type: cell-based, Homo sapiens; settings: for FOXO1/Lamin B Relative Expression, Mean / FOXO1/Lamin B Relative Expression: Nucleus Protein
Method: (§1) Whole-cell and tissue lysates, nucleoprotein, and cytoplasmic protein were prepared using RIPA Lysis Buffer (Beyotime, Shanghai, China) as the described method ([Wu et al., 2021]). Proteins were separated through sodium dodecyl sulfate–polyacrylamide gel electrophoresis and transferred onto nitrocellulose or polyvinylidene difluoride membranes. The membranes were blocked with 5% skim milk and incubated with corresponding primary antibodies at 4°C overnight. After being washed with Tris-buffered saline Tween buffer, the membranes were incubated with secondary antibodies (Cell Signaling Technology, MA, USA) at 1:3000 dilution: Anti-mouse IgG, HRP-linked Antibody (#7076), Anti-rabbit IgG, HRP-linked Antibody (#7074). Protein levels were visualized using a highly sensitive ECL western blotting substrate and a gel imaging system (Tanon Science & Technology, Shanghai, China).
(§2) Here, hCMEC/D3 cells were plated in the plates or culture dishes at 6 × 10^4 cells/cm^2 and transfected with 10 nM of negative control or human FOXO1, ETS1, and CDH5 siRNA (Tsingke Biotechnology, Beijing, China) for 12 hr using Lipofectamine 3000 (Invitrogen, Carlsbad, CA, USA) reagent according to the manufacturer’s instructions. Cells were then incubated with a medium containing GDNF for 72 hr.
The plasmids encoding FOXO1 (EX-Z7404-M02) were constructed by GeneCopoeia (Rockville, MD, USA). The hCMEC/D3 cells were plated in plates or dishes at 6 × 10^4 cells/cm^2. They were subsequently transfected with 1 µg of negative control or plasmids encoding FOXO1 6 hr using Lipofectamine 3000 reagent according to the manufacturer’s instructions. Transfected cells were then incubated with the medium containing GDNF for 72 hr.

p-p38/p38 = test: Western blot of p-p38/p38 in hCMEC/D3 cells; type: cell-based, Homo sapiens
Method: as §1

claudin-5 = test: Western blot of claudin-5 in primary rat brain microvascular endothelial cells; type: cell-based; settings: primary rat BMECs, 200 pg/ml GDNF or US-CM
Method: Then, hCMEC/D3, U251, and SH-SY5Y cells were cultured in DMEM/F12 containing 10% FBS, 62.5 µg/ml penicillin and 100 µg/ml streptomycin. Cell viability was assessed using a CCK-8 kit (Beyotime Biotechnology, Shanghai, China), and the results were expressed as the fold of control.
as §1

p-AKT/AKT = test: Western blot of p-AKT/AKT in hCMEC/D3 cells; type: cell-based, Homo sapiens
Method: as §1
Exogenous and endogenous GDNF in the medium was neutralized with anti-GDNF antibody (#AF-212-NA, R&D system, Minneapolis, MN, USA). 0.25, 0.5, and 1.0 μg/ml anti-GDNF antibody was added into the US-CM or medium containing 200 pg/ml GDNF, and then the medium was preincubated at 4°C for 1 hr. The hCMEC/D3 cells were incubated with 200 pg/ml GDNF or US-CM containing anti-GDNF antibody or not for 6 days, and then cell lysate was collected for western blot. The medium was replaced every 24 hr.

ETS1 = test: Western blot of total and nuclear ETS1 in hCMEC/D3 cells; type: cell-based, Homo sapiens; settings: for ETS1/β-actin Relative Expression, Mean / ETS1/Lamin B Relative Expression, Mean: group mean; for ETS1/β-actin Relative Expression / ETS1/Lamin B Relative Expression: individual replicates
Method: as §1, §2

[1] = Figure 4B, Cytoplasm Protein, group mean, Con = 1.000
[2] = Figure 4B, Cytoplasm Protein, individual replicates, relative to Con

B1: GDNF: glial cell line-derived neurotrophic factor, recombinant protein (R&D system) (protein, UniProt P39905 78-211, looked up)
Glial cell line-derived …: SPDKQMAVLPRRERNRQAAAANPENSRGKGRRGQRGKNRGCVLTAIHLNVTDLGLGYETKEELIFRYCSGSCDAAETTYDKILKNLSRNRRLVSDKVGQACCRPIAFDDDLSFLDDNLVYHILRKHSAKRCGCI
FOXO1/β-actin Relative Expression (FOXO1; Figure 4A, total FOXO1, individual replicates, relative to Con): 0.773 and 0.798 and 1.007 and 0.631
FOXO1/GAPDH Relative Expression, Mean (FOXO1; [1]): 1.680
p-FOXO1/GAPDH Relative Expression, Mean (FOXO1; [1]): 1.601
FOXO1/GAPDH Relative Expression (FOXO1; [2]): 1.609 and 1.840 and 1.778 and 1.494
p-FOXO1/GAPDH Relative Expression (FOXO1; [2]): 1.850 and 1.523 and 1.386 and 1.647
FOXO1/Lamin B Relative Expression, Mean (FOXO1; Figure 4B, group mean, Con = 1.000): 0.556
FOXO1/Lamin B Relative Expression (FOXO1; Figure 4B, individual replicates, relative to Con): 0.674 and 0.519 and 0.531 and 0.499
FOXO1/Lamin B Relative Expression, Mean (FOXO1; Figure 4F, group mean, Con = 1.000): 0.751
FOXO1/Lamin B Relative Expression (FOXO1; Figure 4F, individual replicates, relative to Con): 0.817 and 0.783 and 0.758 and 0.647
p-FOXO1/FOXO1 Relative Expression, Mean (FOXO1; Whole cell lysate, Figure 4F, group mean, Con = 1.000): 1.362
p-FOXO1/FOXO1 Relative Expression (FOXO1; Whole cell lysate, Figure 4F, individual replicates, relative to Con): 1.502 and 1.205 and 1.426 and 1.314
FOXO1 phosphorylation (p-FOXO1) (FOXO1; hCMEC/D3 cells, GDNF or US-CM): significantly enhanced
levels of nuclear FOXO1 (FOXO1; hCMEC/D3 cells, GDNF or US-CM): decreased
levels of phosphorylated and unphosphorylated FOXO1 in the cytoplasm (FOXO1; hCMEC/D3 cells, GDNF or US-CM): increased
phosphorylation of p38 (p-p38/p38; hCMEC/D3 cells, 200 pg/ml GDNF): did not stimulate
p-p38/p38 Relative Expression Mean (p-p38/p38; relative to Con (mean 1.000), mean of 4, Figure 3D): 0.924
p-p38/p38 Relative Expression (p-p38/p38; relative to Con (mean 1.000), single replicates, Figure 3D): 0.949 and 0.886 and 0.913 and 0.946
Claudin-5/β-actin Relative Expression, Mean (claudin-5; Con = 1.000 (Figure 2J)): 1.469
Claudin-5/β-actin Relative Expression (claudin-5; relative to Con, single replicate (Figure 2J)): 1.317 and 1.479 and 1.586 and 1.495
phosphorylation of AKT (p-AKT) (p-AKT/AKT; hCMEC/D3 cells, 200 pg/ml GDNF or US-CM): accompanied by the phosphorylation
p-AKT/AKT Relative Expression, Mean (p-AKT/AKT; mean of 4, relative to Con, GDNF alone, Figure 3E): 1.284
p-AKT/AKT Relative Expression, Mean (p-AKT/AKT; relative to Con (mean 1.000), mean of 4, Figure 3A): 1.345
p-AKT/AKT Relative Expression (p-AKT/AKT; relative to Con (mean 1.000), single replicates, Figure 3A): 1.311 and 1.24 and 1.38 and 1.4488
p-AKT/AKT Relative Expression (p-AKT/AKT; single replicate, relative to Con, GDNF alone, Figure 3E): 1.359 and 1.208 and 1.388 and 1.180
ETS1/β-actin Relative Expression, Mean (ETS1; Figure 5A, Con = 1.000): 1.877
ETS1/β-actin Relative Expression (ETS1; Figure 5A, relative to Con): 1.777 and 1.712 and 2.125 and 1.893
ETS1/Lamin B Relative Expression, Mean (ETS1; Figure 5B, Con = 1.000): 1.560
ETS1/Lamin B Relative Expression (ETS1; Figure 5B, relative to Con): 1.659 and 1.595 and 1.316 and 1.670
ETS1/β-actin Relative Expression, Mean (ETS1; Figure 5C, Con = 1.000, GDNF group of LY and U0 inhibitor experiment): 1.287
ETS1/β-actin Relative Expression (ETS1; Figure 5C, relative to Con, GDNF group of LY and U0 inhibitor experiment): 1.182 and 1.224 and 1.389 and 1.354
ETS1/Lamin B Relative Expression, Mean (ETS1; Figure 5D, Con = 1.000): 2.084
ETS1/Lamin B Relative Expression (ETS1; Figure 5D, relative to Con): 1.875 and 2.209 and 2.073 and 2.180
ETS1/β-actin Relative Expression, Mean (ETS1; Figure 5E, NC = 1.000): 1.499
ETS1/β-actin Relative Expression (ETS1; Figure 5E, relative to NC): 1.466 and 1.523 and 1.519 and 1.490
ETS1/Lamin B Relative Expression, Mean (ETS1; Figure 5F, NC = 1.000): 1.528
ETS1/Lamin B Relative Expression (ETS1; Figure 5F, relative to NC): 1.629 and 1.498 and 1.595 and 1.392
nuclear ETS1 expression (ETS1; hCMEC/D3 cells, US-CM or GDNF): significantly increased
total ETS1 expression (ETS1; hCMEC/D3 cells, US-CM or GDNF): significantly increased
